Laboratory results from PMC11730874.

Tests used:
[1] = target: T1, WT hRab23_(7-172) (untagged) (human) (UniProt Q9ULC3)
T1 sequence: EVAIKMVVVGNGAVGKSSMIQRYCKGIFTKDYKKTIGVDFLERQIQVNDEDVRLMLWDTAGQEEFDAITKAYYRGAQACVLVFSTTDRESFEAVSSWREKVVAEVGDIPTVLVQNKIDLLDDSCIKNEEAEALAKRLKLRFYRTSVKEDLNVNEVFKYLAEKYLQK

[2] = target: T2, hRab23_(7-172) Y79del (untagged) (human) (UniProt Q9ULC3)
T2 sequence: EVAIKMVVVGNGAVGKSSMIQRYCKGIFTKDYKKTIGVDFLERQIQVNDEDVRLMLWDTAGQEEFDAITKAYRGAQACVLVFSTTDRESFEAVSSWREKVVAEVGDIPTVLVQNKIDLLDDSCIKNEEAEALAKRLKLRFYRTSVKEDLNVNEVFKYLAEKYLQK

KIF17-mCitrine, Q9P2E2 = target: T3, KIF17-mCitrine, Q9P2E2; experiment: pull-down (His-tag magnetic beads) with Western blot densitometry; conditions: chain shown with the change; Rab23 proteins exchanged with GMPPNP; lysates from HEK293 cells transfected with KIF17-mCitrine; n = 3 independent experiments; parent: 100.00
T3 chain: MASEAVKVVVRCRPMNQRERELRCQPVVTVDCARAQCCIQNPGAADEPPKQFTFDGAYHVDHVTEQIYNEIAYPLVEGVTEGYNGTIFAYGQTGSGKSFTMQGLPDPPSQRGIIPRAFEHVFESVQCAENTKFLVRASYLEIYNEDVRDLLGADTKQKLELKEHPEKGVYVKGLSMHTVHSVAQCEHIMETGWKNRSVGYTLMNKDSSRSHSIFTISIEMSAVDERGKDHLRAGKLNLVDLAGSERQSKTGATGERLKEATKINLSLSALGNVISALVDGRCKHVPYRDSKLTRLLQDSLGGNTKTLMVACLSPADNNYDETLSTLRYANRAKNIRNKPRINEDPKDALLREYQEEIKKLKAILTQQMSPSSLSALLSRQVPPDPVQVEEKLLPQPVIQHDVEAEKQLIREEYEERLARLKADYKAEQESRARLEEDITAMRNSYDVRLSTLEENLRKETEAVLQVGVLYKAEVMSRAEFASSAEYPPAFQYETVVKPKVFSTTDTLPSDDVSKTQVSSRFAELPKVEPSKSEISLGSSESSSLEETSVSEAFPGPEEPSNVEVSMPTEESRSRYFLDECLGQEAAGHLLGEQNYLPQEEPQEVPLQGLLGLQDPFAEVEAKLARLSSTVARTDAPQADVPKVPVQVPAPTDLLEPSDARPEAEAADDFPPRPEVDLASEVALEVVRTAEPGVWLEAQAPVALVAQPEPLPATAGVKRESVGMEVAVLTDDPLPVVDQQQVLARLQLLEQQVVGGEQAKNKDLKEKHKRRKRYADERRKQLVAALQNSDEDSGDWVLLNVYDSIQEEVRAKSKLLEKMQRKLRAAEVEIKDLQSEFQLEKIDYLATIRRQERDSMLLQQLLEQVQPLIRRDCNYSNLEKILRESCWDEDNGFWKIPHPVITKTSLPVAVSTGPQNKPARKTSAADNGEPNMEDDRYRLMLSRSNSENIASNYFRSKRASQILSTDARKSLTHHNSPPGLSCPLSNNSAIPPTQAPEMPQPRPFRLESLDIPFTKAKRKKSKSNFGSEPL

[3] = target: T1, WT hRab23_(7-172) (untagged) (human); remark: listed apart in the source
[4] = target: T2, hRab23_(7-172) Y79del (untagged) (human); remark: listed apart in the source

B1: Inturned-Fuzzy (Intu-Fuz) complex (complex)
chain 1: MASVASCDSRPSSDELPGDPSSQEEDEDYDFEDRVSDSGSYSSASSDYDDLEPEWLDSVQKNGELFYLELSEDEEESLLPETPTVNHVRFSENEIIIEDDYKERKKYEPKLKQFTKILRRKRLLPKRCNKKNSNDNGPVSILKHQSNQKTGVIVQQRYKDVNVYVNPKKLTVIKAKEQLKLLEVLVGIIHQTKWSWRRTGKQGDGERLVVHGLLPGGSAMKSGQVLIGDVLVAVNDVDVTTENIERVLSCIPGPMQVKLTFENAYDVKRETSHPRQKKTQSNTSDLVKLLWGEEVEGIQQSGLNTPHIIMYLTLQLDSETSKEEQEILYHYPMSEASQKLKSVRGIFLTLCDMLENVTGTQVTSSSLLLNGKQIHVAYWKESDKLLLIGLPAEEVPLPRLRNMIENVIQTLKFMYGSLDSAFCQIENVPRLDHFFNLFFQRALQPAKLHSSASPSAQQYDASSAVLLDNLPGVRWLTLPLEIKMELDMALSDLEAADFAELSEDYYDMRRLYTILGSSLFYKGYLICSHLPKDDLIDIAVYCRHYCLLPLAAKQRIGQLIIWREVFPQHHLRPLADSSTEVFPEPEGRYFLLVVGLKHYMLCVLLEAGGCASKAIGSPGPDCVYVDQVKTTLHQLDGVDSRIDERLASSPVPCLSCADWFLTGSREKTDSLTTSPILSRLQGTSKVATSPTCRRTLFGDYSLKTRKPSPSCSSGGSDNGCEGGEDDGFSPHTTPDAVRKQRESQGSDGLEESGTLLKVTKKKSTLPNPFHLGNLKKDLPEKELEIYNTVKLTSGPENTLFHYVALETVQGIFITPTLEEVAQLSGSIHPQLIKNFHQCCLSIRAVFQQTLVEEKKKGLNSGDHSDSAKSVSSLNPVKEHGVLFECSPGNWTDQKKAPPVMAYWVVGRLFLHPKPQELYVCFHDSVTEIAIEIAFKLFFGLTL
chain 2: MGEEGTGGTVHLLCLAASSGVPLFCRSSRGGAPARQQLPFSVIGSLNGVHMFGQNLEVQLSSARTENTTVVWKSFHDSITLIVLSSEVGISELRLERLLQMVFGAMVLLVGLEELTNIRNVERLKKDLRASYCLIDSFLGDSELIGDLTQCVDCVIPPEGSLLQEALSGFAEAAGTTFVSLVVSGRVVAATEGWWRLGTPEAVLLPWLVGSLPPQTARDYPVYLPHGSPTVPHRLLTLTLLPSLELCLLCGPSPPLSQLYPQLLERWWQPLLDPLRACLPLGPRALPSGFPLHTDILGLLLLHLELKRCLFTVEPLGDKEPSPEQRRRLLRNFYTLVTSTHFPPEPGPPEKTEDEVYQAQLPRACYLVLGTEEPGTGVRLVALQLGLRRLLLLLSPQSPTHGLRSLATHTLHALTPLL
GTPase-Glo luminescence (remaining GTP) relative to buffer control, GEF-aided nucleotide exchange; 3 uM Rab23, 2.25 uM Intu-Fuz, 5 uM GTP, 30 °C, 2 h [1]: 17.4%
GTPase-Glo luminescence (remaining GTP) relative to buffer control, GEF-aided nucleotide exchange; 3 uM Rab23 Y79del, 2.25 uM Intu-Fuz, 5 uM GTP, 30 °C, 2 h [2]: 78.2%

B2: His-SUMO-tagged WT hRab23_(7-172), GMPPNP-loaded, Q9ULC3 Y79del (protein)
chain: EVAIKMVVVGNGAVGKSSMIQRYCKGIFTKDYKKTIGVDFLERQIQVNDEDVRLMLWDTAGQEEFDAITKAYRGAQACVLVFSTTDRESFEAVSSWREKVVAEVGDIPTVLVQNKIDLLDDSCIKNEEAEALAKRLKLRFYRTSVKEDLNVNEVFKYLAEKYLQK
percent of parent (KIF17-mCitrine, Q9P2E2): 54.2%

B3: ecotropic viral integration site 5-like protein (EVI5L) (enzyme)
chain: MASPTLSPDSSSQEALSAPTCSPTSDSENLSPDELELLAKLEEQNRLLEADSKSMRSMNGSRRNSGSSLVSSSSASSNLSHLEEDTWILWGRIANEWEEWRRRKEKLLKELIRKGIPHHFRAIVWQLLCSATDMPVKNQYSELLKMSSPCEKLIRRDIARTYPEHEFFKGQDSLGQEVLFNVMKAYSLVDREVGYCQGSAFIVGLLLMQMPEEEAFCVFVRLMQEYRLRELFKPSMAELGLCIYQFEYMLQEQLPDLNTHFRSQSFHTSMYASSWFLTLFLTTFPLPVATRVFDIFMYEGLEIVFRVGLALLQVNQAELMQLDMEGMSQYFQRVIPHQFDSCPDKLVLKAYQVKYNPKKMKRLEKEYAAMKSKEMEEQIEIKRLRTENRLLKQRIETLEKGQVTRAQEAEENYVIKRELAVVRQQCSSAAEDLQKAQSTIRQLQEQQENPRLTEDFVSHLETELEQSRLRETETLGALREMQDKVLDMEKRNSSLPDENNVAQLQEELKALKVREGQAVASTRELKLQLQELSDTWQAHLARGGRWKESPRKLVVGELQDELMSVRLREAQALAEGRELRQRVVELETQDHIHRNLLNRVEAERAALQEKLQYLAAQNKGLQTQLSESRRKQAEAECKSKEEVMAVRLREADSMAAVAEMRQRIAELEIQREEGRIQGQLNHSDSSQYIRELKDQIEELKAEVRLLKGPPPFEDPLAFDGLSLARHLDEDSLPSSDEELLGVGVGAALQDALYPLSPRDARFFRRLERPAKDSEGSSDSDADELAAPYSQGLDN
GTPase-Glo luminescence (remaining GTP) relative to buffer control, GAP-stimulated GTPase activity; 3 uM Rab23, 2.25 uM EVI5L, 5 uM GTP, 20 mM EDTA, 30 °C, 2 h [3]: 58%
GTPase-Glo luminescence (remaining GTP) relative to buffer control, GAP-stimulated GTPase activity; 3 uM Rab23 Y79del, 2.25 uM EVI5L, 5 uM GTP, 20 mM EDTA, 30 °C, 2 h [4]: 75.7%
